Experiment [1] deals with T1, FcγRIIIa extracellular domain with C-terminal His tag (human, UniProt P08637 17-208).
T1 construct: extracellular domain; also called FcgRIIIa; 3a; not shown: His tag at the C terminus
Description: SPR (Biacore); He/Con for FcγRIIIa divided by He/Con for FcγRIIb. The procedure: (§1) The heterodimerized antibodies He Abs in which one of the H chains was introduced with an alteration were assayed for their binding activities to each activating FcγR and inhibitory FcγR according to the method described in Example 4. […] The activating FcγRs in FIGS. 26, 27, 28, and 29 are FcγRIa, FcγRIIa (R), FcγRIIa (H), and FcγRIIIa, respectively.
(§2) Analysis of interaction between objective antibody and the FcγR was carried out using Biacore T100 (GE Healthcare). HBS-EP+ (GE Healthcare) was used as the running buffer, and the measurement temperature was set to 25° C. Chips produced by immobilizing the antigen peptide by the amine coupling method to a Series S Sencor Chip CM5 (GE Healthcare), or alternatively, chips produced by allowing preliminarily biotinylated antigen peptides to interact with and immobilize onto a Series S Sensor Chip SA (certified) (GE Healthcare) were used. Antibodies of interest were captured onto an antigen peptide-immobilized chip, and allowed to interact to each FcγR diluted with running buffer. To regenerate and repeatedly use the chip, the antibodies captured on the chip were washed off by reacting 10 mM glycine-HCl, pH 1.5.

Experiment [2] concerns the target T2, FcγRIIb extracellular domain with C-terminal His tag (human, UniProt P31994 43-217).
T2 construct: extracellular domain; Soluble receptor expressed in FreeStyle293 cells and used as analyte in Biacore; also called FcgRIIb; 2b; not shown: His tag at the C terminus
T2 sequence (looked up): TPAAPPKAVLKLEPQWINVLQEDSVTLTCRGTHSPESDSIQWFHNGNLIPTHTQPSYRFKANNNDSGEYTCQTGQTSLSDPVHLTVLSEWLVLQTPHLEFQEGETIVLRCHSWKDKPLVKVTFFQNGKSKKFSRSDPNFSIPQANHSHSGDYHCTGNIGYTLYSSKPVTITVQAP
Description: SPR (Biacore), antibody captured on antigen-peptide chip, FcγR as analyte; relative binding amount. The procedure: as §1, §2

For experiment [3], the target named is T1, FcγRIIIa extracellular domain with …. The experiment is described as above. As to the method:
as §1, §2

The target of experiment [4] is T3, FcgRIIIa F (FcγRIIIa type F) extracellular domain with C-terminal His tag (human, UniProt P08637 17-208).
T3 construct: extracellular domain; also called FcγRIIIa F; 3aF; not shown: His tag attached to the C terminus
The experiment is described as follows: SPR (Biacore); relative binding activity of the heterodimerized antibody with the alteration in one H chain.

T3 sequence (P08637 17-208): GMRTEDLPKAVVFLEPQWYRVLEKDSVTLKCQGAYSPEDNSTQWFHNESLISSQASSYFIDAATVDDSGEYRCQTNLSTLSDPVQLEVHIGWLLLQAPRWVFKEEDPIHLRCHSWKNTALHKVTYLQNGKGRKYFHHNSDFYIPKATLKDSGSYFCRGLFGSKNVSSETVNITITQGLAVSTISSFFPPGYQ
T1 sequence (P08637 17-208): as above

B1: GpH7-A5/GpH7-B3 variant K334_15Y/GpL16-k0 (antibody, human IgG1, kappa)
heavy 1: not shown
heavy 2: not shown
light: DIVMTQSPLSLPVTPGEPASISCQASESLVHSNRNTYLHWYLQKPGQSPQLLIYKVSNRFSGVPDRFSGSGSGTDFTLKISRVEAEDVGVYYCSQNTHVPPTFGQGTKVEIERTVAAPSVFIFPPSDEQLKSGTASVVCLLNNFYPREAKVQWKVDNALQSGNSQESVTEQDSKDSTYSLSSTLTLSKADYEKHKVYACEVTHQGLSSPVTKSFNRGEC
notes: Heterodimerized anti-glypican-3 IgG1 (He Ab); The mutation is in the GpH7-B3 chain only; also called He Ab with K334Y in GpH7-B3
Regarding B1, in experiment [1], the “He_3a/2b (IIIa/IIb)” value was found to be 1.29 ratio. For the same molecule, in experiment [2], the “He/Con_2b (IIb binding)” value is 109 relative, GpH7-A5/GpH7-B3/GpL16-k0 = 100. The “He/Con_3a (IIIa binding)” value in experiment [3] was 141 relative, GpH7-A5/GpH7-B3/GpL16-k0 = 100.

B2: GpH7-A5/GpH7-B3 variant (H268D)/GpL16-k0 (antibody, human IgG1, kappa)
heavy 1: not shown
heavy 2: not shown
light: DIVMTQSPLSLPVTPGEPASISCQASESLVHSNRNTYLHWYLQKPGQSPQLLIYKVSNRFSGVPDRFSGSGSGTDFTLKISRVEAEDVGVYYCSQNTHVPPTFGQGTKVEIERTVAAPSVFIFPPSDEQLKSGTASVVCLLNNFYPREAKVQWKVDNALQSGNSQESVTEQDSKDSTYSLSSTLTLSKADYEKHKVYACEVTHQGLSSPVTKSFNRGEC
notes: also called He Ab H268_09D
Consider B2, for which the He/Con_3aF in experiment [4] is 195 % of GpH7-A5/GpH7-B3/GpL16-k0 (= 100).

B3: GpH7-A5/GpH7-B3 variant (A330P)/GpL16-k0 (antibody, human IgG1, kappa)
heavy 1: not shown
heavy 2: not shown
light: DIVMTQSPLSLPVTPGEPASISCQASESLVHSNRNTYLHWYLQKPGQSPQLLIYKVSNRFSGVPDRFSGSGSGTDFTLKISRVEAEDVGVYYCSQNTHVPPTFGQGTKVEIERTVAAPSVFIFPPSDEQLKSGTASVVCLLNNFYPREAKVQWKVDNALQSGNSQESVTEQDSKDSTYSLSSTLTLSKADYEKHKVYACEVTHQGLSSPVTKSFNRGEC
notes: also called He Ab A330_05P
As to B3, in experiment [4], the He/Con_3aF is 152 % of GpH7-A5/GpH7-B3/GpL16-k0 (= 100).

B4: GpH7-A5/GpH7-B3 variant (A330F)/GpL16-k0 (antibody, human IgG1, kappa)
heavy 1: not shown
heavy 2: not shown
light: DIVMTQSPLSLPVTPGEPASISCQASESLVHSNRNTYLHWYLQKPGQSPQLLIYKVSNRFSGVPDRFSGSGSGTDFTLKISRVEAEDVGVYYCSQNTHVPPTFGQGTKVEIERTVAAPSVFIFPPSDEQLKSGTASVVCLLNNFYPREAKVQWKVDNALQSGNSQESVTEQDSKDSTYSLSSTLTLSKADYEKHKVYACEVTHQGLSSPVTKSFNRGEC
notes: also called He Ab A330_04F
B4: the He/Con_3aF in experiment [4] is 144 % of GpH7-A5/GpH7-B3/GpL16-k0 (= 100).

B5: GpH7-A5/GpH7-B3 variant (H268A)/GpL16-k0 (antibody, human IgG1, kappa)
heavy 1: not shown
heavy 2: not shown
light: DIVMTQSPLSLPVTPGEPASISCQASESLVHSNRNTYLHWYLQKPGQSPQLLIYKVSNRFSGVPDRFSGSGSGTDFTLKISRVEAEDVGVYYCSQNTHVPPTFGQGTKVEIERTVAAPSVFIFPPSDEQLKSGTASVVCLLNNFYPREAKVQWKVDNALQSGNSQESVTEQDSKDSTYSLSSTLTLSKADYEKHKVYACEVTHQGLSSPVTKSFNRGEC
notes: also called He Ab H268_02A
As for B5, in experiment [4], the He/Con_3aF was 121 % of GpH7-A5/GpH7-B3/GpL16-k0 (= 100).

B6: GpH7-A5/GpH7-B3 variant (A330M)/GpL16-k0 (antibody, human IgG1, kappa)
heavy 1: not shown
heavy 2: not shown
light: DIVMTQSPLSLPVTPGEPASISCQASESLVHSNRNTYLHWYLQKPGQSPQLLIYKVSNRFSGVPDRFSGSGSGTDFTLKISRVEAEDVGVYYCSQNTHVPPTFGQGTKVEIERTVAAPSVFIFPPSDEQLKSGTASVVCLLNNFYPREAKVQWKVDNALQSGNSQESVTEQDSKDSTYSLSSTLTLSKADYEKHKVYACEVTHQGLSSPVTKSFNRGEC
notes: also called He Ab A330_06M
Take B6: the He/Con_3aF in experiment [4] was 139 % of GpH7-A5/GpH7-B3/GpL16-k0 (= 100).

B7: GpH7-A5/GpH7-B3 variant K334_20W/GpL16-k0 (antibody, human IgG1, kappa)
heavy 1: not shown
heavy 2: not shown
light: DIVMTQSPLSLPVTPGEPASISCQASESLVHSNRNTYLHWYLQKPGQSPQLLIYKVSNRFSGVPDRFSGSGSGTDFTLKISRVEAEDVGVYYCSQNTHVPPTFGQGTKVEIERTVAAPSVFIFPPSDEQLKSGTASVVCLLNNFYPREAKVQWKVDNALQSGNSQESVTEQDSKDSTYSLSSTLTLSKADYEKHKVYACEVTHQGLSSPVTKSFNRGEC
notes: Heterodimerized anti-glypican-3 IgG1 (He Ab); The mutation is in the GpH7-B3 chain only; also called He Ab with K334W in GpH7-B3
For the molecule B7, the “He_3a/2b (IIIa/IIb)” value in experiment [1] was 1.23 ratio. Moreover, the “He/Con_2b (IIb binding)” value in experiment [2] was 104 relative, GpH7-A5/GpH7-B3/GpL16-k0 = 100. Besides, the “He/Con_3a (IIIa binding)” value in experiment [3] was 128 relative, GpH7-A5/GpH7-B3/GpL16-k0 = 100.

B8: GpH7-A5/GpH7-B3 variant K334_19Q/GpL16-k0 (antibody, human IgG1, kappa)
heavy 1: not shown
heavy 2: not shown
light: DIVMTQSPLSLPVTPGEPASISCQASESLVHSNRNTYLHWYLQKPGQSPQLLIYKVSNRFSGVPDRFSGSGSGTDFTLKISRVEAEDVGVYYCSQNTHVPPTFGQGTKVEIERTVAAPSVFIFPPSDEQLKSGTASVVCLLNNFYPREAKVQWKVDNALQSGNSQESVTEQDSKDSTYSLSSTLTLSKADYEKHKVYACEVTHQGLSSPVTKSFNRGEC
notes: Heterodimerized anti-glypican-3 IgG1 (He Ab); The mutation is in the GpH7-B3 chain only; also called He Ab with K334Q in GpH7-B3
Turning to B8, the “He_3a/2b (IIIa/IIb)” value in experiment [1] was found to be 1.25 ratio. The “He/Con_2b (IIb binding)” value in experiment [2] was 109 relative, GpH7-A5/GpH7-B3/GpL16-k0 = 100. For the same molecule, the “He/Con_3a (IIIa binding)” value in experiment [3] is 136 relative, GpH7-A5/GpH7-B3/GpL16-k0 = 100.
